In US20260117259A1:
Values joined by “and” are separate entries in the source; they are usually repeats but may differ in a detail not shown here. Equal values may be shown once. Read-outs that look alike come from different tables or passages of the source.

What was measured:
[1] = target: 16055-ConM-v8.1ds SOSIP trimer (HIV-1); experiment: flow cytometry, primary murine B cells edited in the HCDR3, labeled 16055-ConM-v8.1ds SOSIP against surface IgM
[2] = target: CRF250-SOSIP, soluble HIV-1 envelope glycoprotein trimer (SOSIP.v7 based on the CRF250 HIV-1 isolate) (HIV-1); experiment: flow cytometry of edited Jeko-1 cells, HDRT as dsDNA, double staining with CRF250 SOSIP-APC and CRF250 SOSIP-PE
[3] = target: CRF250-SOSIP, soluble HIV-1 envelope glycoprotein trimer (SOSIP.v7 based on the CRF250 HIV-1 isolate) (HIV-1)
[4] = target: CRF250-SOSIP, soluble HIV-1 envelope glycoprotein trimer (SOSIP.v7 based on the CRF250 HIV-1 isolate) (HIV-1); experiment: flow cytometry of Jeko-1 cells edited at the native heavy-chain locus, double staining with CRF250 SOSIP-APC and CRF250 SOSIP-PE
[5] = target: CRF250-SOSIP, soluble HIV-1 envelope glycoprotein trimer (SOSIP.v7 based on the CRF250 HIV-1 isolate) (HIV-1); experiment: flow cytometry of Jeko-1 cells edited with gRNA targeting JH6, staining with CRF250 SOSIP-APC against anti-IgM
[6] = target: CRF250-SOSIP, soluble HIV-1 envelope glycoprotein trimer (SOSIP.v7 based on the CRF250 HIV-1 isolate) (HIV-1); experiment: flow cytometry of edited Jeko-1 cells, HDRT by AAV, double staining with CRF250 SOSIP-APC and CRF250 SOSIP-PE
[7] = target: CRF250-SOSIP, soluble HIV-1 envelope glycoprotein trimer (SOSIP.v7 based on the CRF250 HIV-1 isolate) (HIV-1); experiment: flow cytometry of primary murine B cells edited at native loci, HDRT as dsDNA, double staining with CRF250 SOSIP-APC and CRF250 SOSIP-PE
[8] = target: CRF250-SOSIP, soluble HIV-1 envelope glycoprotein trimer (SOSIP.v7 based on the CRF250 HIV-1 isolate) (HIV-1); experiment: flow cytometry of primary murine B cells edited at native loci, HDRT by AAV, double staining with CRF250 SOSIP-APC and CRF250 SOSIP-PE
[9] = target: CRF250-SOSIP, soluble HIV-1 envelope glycoprotein trimer (SOSIP.v7 based on the CRF250 HIV-1 isolate) (HIV-1); experiment: flow cytometry of control Jeko-1 cells (RNP without HDRT), double staining with CRF250 SOSIP-APC and CRF250 SOSIP-PE
[10] = target: CRF250-SOSIP, soluble HIV-1 envelope glycoprotein trimer (SOSIP.v7 based on the CRF250 HIV-1 isolate) (HIV-1); experiment: flow cytometry of control primary murine B cells (RNP without HDRT), upper row (IgH gRNAs), double staining with CRF250 SOSIP-APC and CRF250 SOSIP-PE
[11] = target: CRF250-SOSIP, soluble HIV-1 envelope glycoprotein trimer (SOSIP.v7 based on the CRF250 HIV-1 isolate) (HIV-1); experiment: flow cytometry of control primary murine B cells (RNP without HDRT), double staining with CRF250 SOSIP-APC and CRF250 SOSIP-PE
[12] = target: CRF250-SOSIP, soluble HIV-1 envelope glycoprotein trimer (SOSIP.v7 based on the CRF250 HIV-1 isolate) (HIV-1); experiment: flow cytometry of control primary murine B cells (RNP without HDRT), double staining with CRF250 SOSIP-APC and CRF250 SOSIP-FITC
[13] = target: CRF250-SOSIP, soluble HIV-1 envelope glycoprotein trimer (SOSIP.v7 based on the CRF250 HIV-1 isolate) (HIV-1); experiment: flow cytometry of control primary murine B cells (RNP without HDRT), lower rows (IgK gRNAs), double staining with CRF250 SOSIP-APC and CRF250 SOSIP-PE
[14] = target: CRF250-SOSIP, soluble HIV-1 envelope glycoprotein trimer (SOSIP.v7 based on the CRF250 HIV-1 isolate) (HIV-1); experiment: flow cytometry of control primary murine B cells (RNP of the intron approach without HDRT), double staining with CRF250 SOSIP-APC and CRF250 SOSIP-PE
[15] = target: CRF250-SOSIP, soluble HIV-1 envelope glycoprotein trimer (SOSIP.v7 based on the CRF250 HIV-1 isolate) (HIV-1); experiment: flow cytometry of control Jeko-1 cells (RNP without HDRT), double staining with CRF250 SOSIP-APC and CRF250 SOSIP-PE; remark: listed apart in the source
[16] = target: CRF250-SOSIP, soluble HIV-1 envelope glycoprotein trimer (SOSIP.v7 based on the CRF250 HIV-1 isolate) (HIV-1); remark: listed apart in the source
[17] = target: CRF250-SOSIP, soluble HIV-1 envelope glycoprotein trimer (SOSIP.v7 based on the CRF250 HIV-1 isolate) (HIV-1); experiment: flow cytometry of Jeko-1 cells edited at the native heavy and kappa loci, double staining with CRF250 SOSIP-APC and CRF250 SOSIP-PE
SOSIP = experiment: flow cytometry, APC-labeled SOSIP trimer against anti-IgM

B-cell receptors of primary murine B cells edited to express the HCDR3 of the predicted unmutated common ancestor of the VRC26 family (VRC26-UCA) (antibody)
% of cells in the SOSIP gate [1]: 2.26%

VRC26.25 heavy-chain variable gene introduced at the native heavy-chain locus of Jeko-1 cells (B-cell receptor on the cell surface) (antibody)
% of cells in the SOSIP-positive gate [2]: 7.12% | % of cells in the SOSIP-positive gate [3]: 4.43% and 1.12% | % of cells in the SOSIP-positive gate [4]: 7.12% | % of cells in the SOSIP-positive gate [5]: 5.24% | % of cells in the SOSIP-positive gate [6]: 37.8%

VRC26.25-y heavy and light chain variable genes introduced at the native loci of primary murine B cells (B-cell receptor) (antibody)
% of cells in the SOSIP-positive gate [7]: 1.78% | % of cells in the SOSIP-positive gate [8]: 7.55%

B-cell receptors of primary murine B cells edited to express the PG16 HCDR3 (antibody)
% of cells in the SOSIP gate [1]: 1.02%

10-1074 heavy and light chain variable genes introduced at the native heavy and kappa loci of primar (antibody)
% of cells in the SOSIP-positive gate [7]: 0.95% | % of cells in the SOSIP-positive gate [8]: 2.38%

No HDRT (antibody)
% of cells in the SOSIP-positive gate [9]: 0.24% | % of cells in the SOSIP-positive gate [10]: 0.44% | % of cells in the SOSIP-positive gate [11]: 0.34% | % of cells in the SOSIP-positive gate [12]: 0.17% | % of cells in the SOSIP-positive gate [13]: 0.45% | % of cells in the SOSIP-positive gate [14]: 0.58% | % of cells in the SOSIP-positive gate [15]: 0.12%

VRC26.25-y heavy chain alone introduced into primary murine B cells (B-cell receptor with endogenous murine light chains) (antibody)
% of cells in the SOSIP-positive gate [16]: 1.59% and 1.47% and 1%

10-1074 heavy and light chain variable genes introduced at the native heavy and kappa loci of Jeko-1 (antibody)
% of cells in the SOSIP-positive gate [2]: 3.05% | % of cells in the SOSIP-positive gate [6]: 11.1% | % of cells in the SOSIP-positive gate [17]: 3.09%

Negative control (antibody)
% of cells above the SOSIP gate line (SOSIP): 0.12%

B-cell receptors of primary murine B cells edited to express the PG9 HCDR3 (antibody)
% of cells in the SOSIP gate [1]: 1.49%
